The record followed here is the supplement of paper PMC9170038.

For one data set, the system named is MS2 coat protein. Briefly: apparent KD of MS2 coat protein; designed switch direction (-1 OFF switch, 1 ON switch): 1; higher = weaker reporter binding. The procedure, abridged: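 On Illumina chips, designed RNA switches with common flanks were made by stalled E. coli RNA polymerase. Titrations with SNAP-549-labelled MS2 coat protein, doubling from 0.7 or 1.5 nM to 3 µM, were done with no input, with 200 uM small-molecule ligand, or with an oligonucleotide input. Apparent KD is the median per design over clusters, from curve fits of normalised cluster fluorescence.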

Data set [1] concerns K4 kissing-loop RNA reporter. Briefly: apparent KD of K4 kissing-loop reporter; higher = weaker reporter binding. Conditions: Eterna round: R107. The method, then:
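RNA-MaP round R107: designed RNA switches with theophylline, tryptophan, arginine or FMN aptamers are transcribed on-chip within common flanks. They are titrated with a labelled K4 kissing-loop RNA reporter in RNA-MaP buffer (100 mM Tris pH 7.5, 80 mM KCl, 4 mM MgCl2), without ligand or with the indicated ligand. Median apparent KD per design.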

The mark [2] stands for this setting: input ligand: microRNA oligo, concentration not stated.
[3] abbreviates: Eterna round: R95, input ligand: microRNA oligo, concentration not stated.
[4] abbreviates: Eterna round: R95, input ligand: FMN 200 uM.
The mark [5] stands for this setting: Eterna round: R95, input ligand: none.
Setting [6] is: input ligand: theophylline 20 uM.
[7] abbreviates: input ligand: tryptophan 2.4 mM.
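Throughout, for apparent KD of K4 kissing-loop reporter: bound reporter read as fluorescence of individual clusters on recovered sequencing chips by microscopy, with normalized cluster intensities fitted with a binding model.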

As to “AAAAAACAUGAGGAUCACCCAUGUCAAAAGACAUGAGGAUAUGUACAGACUUCGGUCUGUACAGAAGGCAUGUAAA [SS1 - 1015] (Eterna round: R96, puzzle: Same State 1)”, the “apparent KD of MS2 coat protein” value in the data set on MS2 coat protein (input ligand: FMN 200 uM) is 28.9 nM; with MS2 coat protein (setting [2]), 241 nM; with MS2 coat protein (input ligand: none), 319 nM.

“AAAAGAAACACAGGAUAUACCGCACUUAACGCGGUAGAAGGGUGGGACAUGAGGAUCACCCAUGUGGCCUAAGCGCCAGGCCGC [Tibiorvela] (Eterna round: R96, puzzle: Same State NG 1)”: the “apparent KD of MS2 coat protein” value stood at 3890 nM with MS2 coat protein (input ligand: FMN 200 uM), 13.1 nM with MS2 coat protein (setting [2]) and 211 nM in the data set on MS2 coat protein (input ligand: none).

For the sequence “AAAAUGGUAUGUUACAUGAGGAUCACCCAUGUACCGUCAUCUGAGGAUAUGGUGAUGUAGAAGAAUCAGAAGGCAGACAUUUAA [AK SSNG3-V2-25] (Eterna round: R96, puzzle: Same State NG 3)”, the “apparent KD of MS2 coat protein” value in the data set on MS2 coat protein (input ligand: FMN 200 uM) is 17.3 nM; with MS2 coat protein (setting [2]) it was 20 nM; in the data set on MS2 coat protein (input ligand: none), 34.1 nM.

Turning to “AAACAUGAGCGAGGAUAUGCGGAGGAUCACCCUGUAGAAGGCGCAUGUAAAACAACAUGAGGAUCACCCAUGUCAUGUACAUAA (Eterna round: R96, puzzle: Same State NG 1)”, the “apparent KD of MS2 coat protein” value in the data set with MS2 coat protein (input ligand: FMN 200 uM) turned out to be 77.5 nM; with MS2 coat protein (setting [2]), 144 nM; in the data set on MS2 coat protein (input ligand: none), 223 nM.

As to “AAACAUGAGCGAGGAUAUGCGGAGGAUUACCCUGUAGAAGGCGCAUGUAAAACAACAUGAGGAUCACCCAUGUCAUGUACAUGU (Eterna round: R96, puzzle: Same State NG 1)”, the figures for the “apparent KD of MS2 coat protein” value in the data set with MS2 coat protein (input ligand: FMN 200 uM), in the data set on MS2 coat protein (setting [2]) and in the data set on MS2 coat protein (input ligand: none) were 168 nM, 115 nM and 226 nM, respectively.

Turning to “AAACCACAUGAGGAUCACCCAUGUGAUAAAAGCAUAGGAUAUCUGGAUGUGAGAGGCGGCAGAGAAGGAUGCACGC [Laoror] (puzzle: Same State 1)”, the “apparent KD of MS2 coat protein” value in the data set on MS2 coat protein (setting [3]) turned out to be 58.2 nM.

With “AAACGGCCGAACGGAGGGCCACAUGAGGAUCACCCAUGUACAUAGGAUAUCACACCAACGAGGCGUGAGAAGGGUGAUUAAAAC [Teisedbe] (Eterna round: R96, puzzle: Same State NG 3)”, the “apparent KD of MS2 coat protein” value in the data set with MS2 coat protein (input ligand: FMN 200 uM) was determined as 176 nM; in the data set with MS2 coat protein (setting [2]), 52.1 nM; in the data set with MS2 coat protein (input ligand: none), 1110 nM.

Consider “AAACUACAUGAGGAUCACCCAUGUGAAAACCGCAUAGGAUAUCCGCAGCAAUGAGCUGACGGAGAAGGGUGACCGG [Riater] (puzzle: Same State 1)”, for which the “apparent KD of MS2 coat protein” value in the data set on MS2 coat protein (setting [4]) amounted to 175 nM; with MS2 coat protein (setting [3]), 103 nM; with MS2 coat protein (setting [5]), 276 nM.

For the sequence “AAAGAAAACGCAGGAUAUCCCGGAAUGGAAACGGGAGAAGGGUGACCGGUACAUGAGGAUCACCCAUGUAGAGCACAGGCUCAA [Sousdi] (Eterna round: R96, puzzle: Same State NG 1)”, the “apparent KD of MS2 coat protein” value with MS2 coat protein (input ligand: FMN 200 uM) was found to be 3380 nM; with MS2 coat protein (setting [2]) it was 39.4 nM; in the data set on MS2 coat protein (input ligand: none), 922 nM.

For the sequence “AAAGGACAUGAGGAUCACCCAUGUAGAAAAUACACAGGAUAUCGUCAUAUCGAAAUAUAAUGAGAAGGGUGCAAAA [Zaanininra] (puzzle: Same State 1)”, the “apparent KD of MS2 coat protein” value was found to be 73.5 nM in the data set with MS2 coat protein (setting [4]), 179 nM in the data set on MS2 coat protein (setting [3]) and 256 nM with MS2 coat protein (setting [5]).

In the case of “AAAGUACAUGAGGAUCACCCAUGUCCCAAUGAAUAAGGAUAUACGAAAAUAAAAUAAAAUGUAGAAGGUAUAAUAG [Same State 1 #1] (puzzle: Same State 1)”, in the data set with MS2 coat protein (setting [3]), the “apparent KD of MS2 coat protein” value was determined as 30.5 nM.

Regarding “AAAUAAAUGACUCAGGAUAUAUCAUAGAAUACAUGAGGAUCACCCAUGUUUUAAUAACAUGUUUGGUAGAAGGGAGUCAAUAAAU [LROPPY Same State 2 - v05_deltaG=1.86] (Eterna round: R96, puzzle: Same State 2)”, the “apparent KD of MS2 coat protein” value in the data set with MS2 coat protein (input ligand: FMN 200 uM) is 25.2 nM; in the data set with MS2 coat protein (setting [2]), 78.1 nM; with MS2 coat protein (input ligand: none), 105 nM.

On to “UUAGGAGUGGGAGGAUAUCCUAAUAUGGGUGAUGUUAGCGAUGUUGAAAGUGUAGUGAUGUUGUGCGGAGAAGGUCCAGUGUUGA [BDazzled - #13 - Exc. FMN B]”, for which the “apparent KD of K4 kissing-loop reporter” value in data set [1] (input ligand: FMN 200 uM) was 196 nM; in data set [1] (input ligand: arginine 13.2 mM), 126 nM; in data set [1] (input ligand: none), 178 nM; in data set [1] (setting [6]) it was 222 nM; in data set [1] (setting [7]), 161 nM.

For the sequence “UUAUAUAUAUCAGAUACCAGCAUAAUGGAAACAAAUUAUGUUAUGAGUGAUGUUCAUGUAUGCCCUUGGCAGCUGGUAUGGGUUU [KL-XTheo-B19]”, the “apparent KD of K4 kissing-loop reporter” value in data set [1] (input ligand: FMN 200 uM) is 467 nM; in data set [1] (input ligand: arginine 13.2 mM), 412 nM; in data set [1] (input ligand: none), 433 nM; in data set [1] (setting [6]), 487 nM; in data set [1] (setting [7]), 363 nM.

Take “UUAUAUAUAUCAGAUACCAGUAUAAUGGAAACAAAUUAUGUUAUGAGUGAUGUUCAUGUAUGCCCUUGGCAGCUGGUAUGGGUUU [KL-XTheo-B20]”: the “apparent KD of K4 kissing-loop reporter” value was determined as 356 nM in data set [1] (input ligand: FMN 200 uM); 322 nM in data set [1] (input ligand: arginine 13.2 mM); 362 nM in data set [1] (input ligand: none); 439 nM in data set [1] (setting [6]); 311 nM in data set [1] (setting [7]).

Take “UUAUCUAUAUUCGAUACCAGUACCCUUUGUGUUAAUCCUUUUAUCAGUGAUGUUGAUGUGUACCCUUGGCAGCGGGUAUGGGUUU [KL-XTheo-B15]”: the “apparent KD of K4 kissing-loop reporter” value in data set [1] (input ligand: FMN 200 uM) is 420 nM; in data set [1] (input ligand: arginine 13.2 mM) it was 388 nM; in data set [1] (input ligand: none) it was 437 nM; in data set [1] (setting [6]), 640 nM; in data set [1] (setting [7]) it was 349 nM.

With “UUCGAAAGUCGAAGGAGCGCUGUCGGUCAUAGACCAUAUCUGUAGUGAUGUUACAGAUGACAGCAGGUAGGUCGCGACAGAGACA [Arg B SS t18]”, the “apparent KD of K4 kissing-loop reporter” value in data set [1] (input ligand: FMN 200 uM) was determined as 148 nM; in data set [1] (input ligand: arginine 13.2 mM), 120 nM; in data set [1] (input ligand: none) it was 127 nM; in data set [1] (setting [6]), 144 nM; in data set [1] (setting [7]), 144 nM.

Regarding “UUGAGACGUCAAGGAUAUUCCGCGGAAGGGCGAGCGACCCAAGUGUGAGUGAUGUUCAGCAAGCCGGAAGAAGGUGAAUUUCACC [theeternabot_sameState_KL_FMN_B_26]”, the “apparent KD of K4 kissing-loop reporter” value was 799 nM in data set [1] (input ligand: FMN 200 uM); 628 nM in data set [1] (input ligand: arginine 13.2 mM); 958 nM in data set [1] (input ligand: none); 1050 nM in data set [1] (setting [6]); 937 nM in data set [1] (setting [7]).

On to “UUGAGCCGGACGGAAGUCCGGCUCUGCGAGCGAGGACCGGUACGGCCGCCACUCGGUGCAGUGAUGUUGCAUGGCCGCAAGGCCG [#2 Exclusion - Tryptophan A Attempt #4 (HarryS)]”, for which the “apparent KD of K4 kissing-loop reporter” value in data set [1] (input ligand: FMN 200 uM) came to 270 nM; in data set [1] (input ligand: arginine 13.2 mM), 232 nM; in data set [1] (input ligand: none), 301 nM; in data set [1] (setting [6]), 208 nM; in data set [1] (setting [7]), 324 nM.

On to “UUGGCUGGACGGGAUACCAGCCAAAUCGUGGGCUUGGGAUGUCUAAGAGCCAGUGAUGUUGGCCCUUGGCAGCCCUCCCAGCUUG [Xerirala]”, for which the “apparent KD of K4 kissing-loop reporter” value in data set [1] (input ligand: FMN 200 uM) was determined as 104 nM; in data set [1] (input ligand: arginine 13.2 mM), 97.7 nM; in data set [1] (input ligand: none), 95.9 nM; in data set [1] (setting [6]), 75.5 nM; in data set [1] (setting [7]) it was 113 nM.
